Results on 41 sequences are retold here after the nanobody polyreactivity screen of Harvey et al. (2022).

This series can be described thus: yeast display, Sf9 membrane polyspecificity reagent, FACS + sequencing; frameworks hold sequencing errors. The essentials:
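Genes from sorted yeast were amplified by colony PCR, read by MiSeq 2 × 250 sequencing and filtered on CDR length. These cells carried a synthetic nanobody library in Saccharomyces cerevisiae BJ5465 and were sorted by FACS into low and high (top ~1%) gates on anti-HA and streptavidin fluorescence. Polyreactivity is labelled according to the gate of origin.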
For the sequence “QVQLVESGGGLLQAGGSLRLSCAASGRIGRYAMGCYRQAPGKERQLVAVITSGDSTYYADSVKGRFTISRDNAKNTVYLQMNSLKPEESPVESCAADSYRRWGNLFTGNEYDSWGQGTQVTVSS”, the “polyreactivity (PSR sort gate)” value was “low polyreactivity”. For “QVQLVESGGGLLQAGGSLRLSCAASGRILGPNAMGWYRQAPGTERELVAAINSGGSTNYADSVKGRFTISRDNAKNTVYLQMNSLKPEDTAVYYCATDKARVAGYGVEYDYWGQGTQVTVSS”, the “polyreactivity (PSR sort gate)” value was “low polyreactivity”. The result for “QVQLVESGGGLLQAGGSLRLSCAASGRNFKYYAMGWYRQAPGKEREFVAAISRSGGRTYYADSVKGRFTISRDNAKNTVYLQMNSLKPEDTAVYYCAAQPSSYVYYRQPFHYWGQGTQVTVSS” reads “high polyreactivity”. With “QVQLVESGGGLLQAGGSLRLSCAASGRTFNYYAMGWYRQAPGKERELVAAISRSGGSTYYADSVKGRFTISRDNAKNTVFLQMNSLKPEDTAVYYCKSDRGSIYGWGQGTQVTVSS”, the “polyreactivity (PSR sort gate)” value is recorded as “high polyreactivity”.

As to “QVQLVESGGGLLQAGGSLRLSCAASGRTFPYYAMGWYRQAPGKERELVAAISSSGGSTYYADSVKGRFTISRDNAKNTVYLEMNSLKPEDTEVYYCAAVYQFIKWGDSYEYWGQGTQVTVSS”, the “polyreactivity (PSR sort gate)” value is listed as “high polyreactivity”. The result for “QVQLVESGGGLLQAGGSLRLSCAASGRTFVWNAKGWYRQAPGKERELVAPITNDGSTNYADSVKGRFTISRDNAKNTVYLQMNSLKPEDTAVYYCAKRPRGSRIVPGGYDSWGQGTQVTVSS” reads “low polyreactivity”; that for “QVQLVESGGGLLQAGGSLRLSCAASGRTFVYYAMGWYRPAPGKERELVAAITSSGSRTYYADSVKGRFTISRDNAKNTVYLQMNSLKPEDTAVYYCAADYVAHGDYRVLYDYWGQGTQVTVSS”, “low polyreactivity”; that for “QVQLVESGGGLLQAGGSLRLSCAASGSIFGVNAMGWYIQAPGKERELVASITGGDSTNYADSVKGRFTISRDNAKNTVYLQINSLKTEDTAVYYCNARVADAWASGYDYWGQGTQVTVSS”, “low polyreactivity”. The result for “QVQLVESGGGLLQAGGSLRLSCAASGSIFRRNAMGWYRQAPGKERELVAAITTRGSRTTYADSVKGRFTISRDNAKNTVYLQMNSLKPEDTAVYYCAARQHFSYSFHVAYDYWGQGTQVTVSS” reads “high polyreactivity”; that for “QVQLVESGGGLLQAGGSLRLSCAASGSIFRYYAKGWYRQAPGKERELVAAISYSGGRTYYADSVKGRFTISRDNAKNTVYLQMNSLKPEDTAVYYCNAGAGKRGYDYWGQGTQVTVSS”, “low polyreactivity”; that for “QVQLVESGGGLLQAGGSLRLSCAASGSIFSRYVMGWYRQAPGKERELVAGISGSGGSTYYADSVKGRFTISRDNAKNTVYLQMNSLKPEDTAVYYCNAATSRLYYNHYTRYNYWGQGTQVTVSS”, “high polyreactivity”. As for “QVQLVESGGGLLQAGGSLRLSCAASGSIFTAYAMGWYRQAPGKESELVAAIDDSGDSTYYADSVKGRFTISRDNAKHTVYLQMNSLKTEDTAVYYCKAEYRVNKEYDDWGQGTQVTVSS”, the “polyreactivity (PSR sort gate)” value is given as “low polyreactivity”. The result for “QVQLVESGGGLLQAGGSLRLSCAASGSNFDRYGRGWYRQAPGTERELVADITSDGSTNYADSVKGRFTISRDNAKNTVYLQMNSLKPEDTAVYYCAVSYTAYSVGYDYWGQGTQVTVSS” reads “low polyreactivity”; that for “QVQLVESGGGLLQAGGSLRLSCAASGSTFHRNAMGWYRQAPGKERELVAAISWRAGSTYYADSVKGRFTISRDNAKNTVYLQMNSLKPEDTAVYYCNAVERYWDYGYWGQGTQVTVSS”, “low polyreactivity”. The result for “QVQLVESGGGLLQAGGSLRLSCAASGSTFKFNAMGWYRQAPRKERELVAAISNRGGTTYYADSVKGRFTISRDNAKNTVYFHMNSLKPEDTAVYYCAAGRVQSYYYWGQGTQVTVSS” reads “high polyreactivity”; that for “QVQLVESGGGLLQAGGSLRLSCAASGSTFRGNALGWYRQAPGKVRELVAAINSSGGRTYYADSVKGRFTISRDNAKNTVYLQMNSLKPEDTAVNYCAARGRRTGDYDYWGQGTQVTVSS”, “high polyreactivity”; that for “QVQLVESGGGLLQAGGSLRLSCAASGSTFTAYAMGWYRQAPGKERELVADISDSGGSTYYADSEKGRFTISRDNAKNTVYLQINSLKPEDTAVYYCAVHVRAFVVSKFDSRGQGTQVTVSS”, “low polyreactivity”. With “QVQLVESGGGLLQAGGSLRLSCAASGSTFWFYAMGWYRQAPGKERELVDVISNSGSTYYADSEKGRFTISRDNAKNTVYLQMNSLKPEDTAVYNCAADGFYYPNWGRFSYYYWGQGTLVTVSS” the entry was “low polyreactivity”. In the case of “QVQLVESGGGLLQAGGSLRLSCAASGYTFWLYAMGWYRQAPGKDRELVATISRRAGTTYYADSVKGRFTISRDNAKNTVYLQMNSLKPEDTAVYYCAKKSHSLLGQYGEDYDYWGQGTQVTVSS”, the “polyreactivity (PSR sort gate)” value is “low polyreactivity”. With “QVQLVESGGGLLQAGGSLRLSCAASVRFLCYGWYRQAPGKERELVAAITWSGGSTYYADSVKGRFTISRDNAKNTVYLLMNSLKPEDTAVYYCARYPDSYWYGRKNYYWGQGTQVTVSS” the entry was “high polyreactivity”; with “QVQLVESGGGLLQAGGSLRLSCADSGRTFCPNVMGCYRQAPGKERELVAAITWGDASTYYADSVKGRFTISRDNAKNTVYLQMNCLKPEDTAVYYCGAKSSTRGDYWGQGTQVTVSS”, “low polyreactivity”. The result for “QVQLVESGGGLLQAGGSLRLSCSASGRIFPSYAMGWYRQAPGKERELVAAISSSGGRTYYADSVKGRFTISRDNAKNTVYLQLNSLKPEDTAVYYCAARWVQYGVRYDFWGQGTQVTVSS” reads “high polyreactivity”.

Take “QVQLVESGGGLLQAGGSLRVSCAASGFIFVLYAMGWYRQAPGKERELVAAITWSTGCTYYADSVKGRFTISRDNAKNTVYLHMNSLKPEDTAVYYCSADQYIFGIWFDYWGQGTQVTVSS”: the “polyreactivity (PSR sort gate)” value is recorded as “high polyreactivity”. With “QVQLVESGGGLLQAGGSLSLSCAASGRTFVPYTMGWYRPAPGKERELVAAISWSDGTTYYADSVKGRFTISRDNAKNTVYLQMNSLKPEDTAVYYCNDDVYLFNYFGGWYYAGYDYWGQGTQVTVSS” the entry was “high polyreactivity”; with “QVQLVESGGGLLQEGGSLRLSCAASGRTFYYYTMGWYRQAPGIERELVAAITHGGSTYYADSVKGRFTISRDNAKNTVYLQMNSLTPEDTAVYYCNAVYHYPYEYWGHGTQVTVSS”, “high polyreactivity”; with “QVQLVESGGGLVEAGGSLRLSCAASGFIFGGYDMGWYRPAPGKQRELVAAITRSGGSTYYADSVKGRFTISRDNAKNTVYLEMNSLKPEDTAVYYCAAERQPYRTSSYNYWGQGTQVTVSS”, “high polyreactivity”. The result for “QVQLVESGGGLVEAGGSLRLSCAASGFNIPIYAMGWYRPAPGKERELVASITRSGGSTYYADSVKGRFTISRDNAMNTVYLQMNSLKPEDTAVYFCAASVKIISYLVHSELLGGELDYWGQGTQVTVSS” reads “low polyreactivity”. For the sequence “QVQLVESGGGLVEAGGSLRLSCAASGIIFVSYDMGWYRQAPGKERELVAAINRGGRTYYADSVKGRFTISRDNAKNTVYLQMISLKPEDTAVYYCAAQFHFRPFSWTYDYWGQGTQVSVSS”, the “polyreactivity (PSR sort gate)” value is “high polyreactivity”. The result for “QVQLVESGGGLVEAGGSLRLSCAASGLTFYLYDMGWYRQAPGKERELVAAISRRGTSTYYADSVKGRFTISRDNAKNSVYLQMNSLKPEDTAVYYCAADRKVGRDYWGQGTQVTVSS” reads “high polyreactivity”; that for “QVQLVESGGGLVEAGGSLRLSCAASGRIFHANAMGWYRQAPGKERELVAGISRHGGRTYYADSVKGRFTMSRDNAKNTVYLQMNSLNPEDTAVYYCNALDWQYKELDYYWGQGTQVTVSS”, “high polyreactivity”. For the sequence “QVQLVESGGGLVEAGGSLRLSCAASGRTFFSNAMVWYRQAPGKERELVAAINRGGSTYYADSVKGRFTSSRDNAKNTVNLQMNSLKPEDTAVYYCAAGYWSKNSIHYYYWGQGTQVTVSS”, the “polyreactivity (PSR sort gate)” value is given as “high polyreactivity”. With “QVQLVESGGGLVEAGGSLRLSCAASGSTFRWYAMGWYRQAPGKERELVAAISRSGASTYDSDSVKGRFTISRDNAKNTVYLQMNSLKPEDTAVYYCAAKQRTKGDYWRQGTQVTVSS” the entry was “high polyreactivity”; with “QVQLVESGGGLVEAGGSLRLSCAASGSTFSVNAMGRYRQAPGKERELVAAISYRGGSTYYADSVKGRFTISRDNAKNTVYFQMNSLKPEDTAVYYCNAQRYRPGYWYDYWGQGTQVTVSS”, “high polyreactivity”.

On to “QVQLVESGGGLVEAGGSLRLSCAASGSTFTYYAMGWFRPAPGKERELVAAISSSGTSTYYADSVKGRFTLSRDNEKNTVSLQLNSLKPEDPAVYYCAADYYHTRGEADYEYAYWGKGTQVTVSS”, for which the “polyreactivity (PSR sort gate)” value is “low polyreactivity”. The result for “QVQLVESGGGLVEAGGSLRLSCAASGSTVWRYAMGWYRQAPGKERELVAAISWNGGSTYYADSVKGRFTISRDNAKNTVYLQMHSLKPEDTAVYYCARGYSWSVGYPRVQDMDYWGQGTQVTVSS” reads “high polyreactivity”; that for “QVQLVESGGGLVEAGGSLRLSCAASVRTFRYYDMGWFRQAPGKQWELVAAITARGGSTYYADSVKGRFTISRDNEKNTDYLQMNSQKPEDTAVYYCNAYPLQIFYLGNRQYNYWRQGTQVTVSS”, “high polyreactivity”. Regarding “QVQLVESGGGLVEAGGSLRLSCADSGRIFLRNAMGWSRQAPGKERELVAAINRGGRTNYADSVKGRFTISRDNAKNTVYLQMNSLKPEDTAVYYCATERESPGYTEYDSWGQGTQVTVSS”, the “polyreactivity (PSR sort gate)” value was “low polyreactivity”. The result for “QVQLVESGGGLVEAGGSLRLSCADSGRTFGSYTMGWYRQAPGKEREWVAAITSGGRTNYADSVKGRFTISRDNAKNTVYLQMNSLKPEDTAVYYCAPGWRGGRYRYFAYDYWGQGTQVTVSS” reads “high polyreactivity”.

Turning to “QVQLVESGGGLVEAGGSLRLTCEASGSIISYYVMGWYRQAPGKERELVAAISSSGGRTYYADSVKGRFTISRDNSKNTVYLQMNSLKPDDNAVYYCAARDRPSPYYYWGQGTQVNVSS”, the “polyreactivity (PSR sort gate)” value was “high polyreactivity”. With “QVQLVESGGGLVHAGCSLRLSCAASGLIFGSYSMGWYRQAPGKERELVAAISRSGGSTYYADSVKGRFTISRDNAKNTVYFLMNSLKPEDTAVYYCAARGYPLGIGRIKRNYWGQGKQVTVSS” the entry was “high polyreactivity”.

Regarding “QVQLVESGGGLVHAGCSLRLSCAATGIIFAWYVMGWYRPAPGKERELVAAITQSGGSTFYADSVKGRFTISRDNAKNTVYLQMNSLKPEDTAVYYCNTEDFFNVPEMDSWGQGTQVTVSS”, the “polyreactivity (PSR sort gate)” value is on record as “low polyreactivity”.
